The text below walks through data of article PMC3197142, “Direct Identification of Insulator Components by Insertional Chromatin Immunoprecipitation” (PLoS ONE, 2011).

The test addresses T1, GST-Matrin-3 (human, UniProt P43243-1 1-847).
T1 construct: human Matrin-3, cDNA GenBank NM_199189, inserted downstream of the GST gene in pGEX-6P-1; also called GST-fused Matrin-3; pGEX-Matrin-3; source: E. coli BL21-CodonPlus(DE3)-RIPL, purified (Glutathione Sepharose 4B); not shown: GST, N-terminal, kept
T1 sequence (looked up): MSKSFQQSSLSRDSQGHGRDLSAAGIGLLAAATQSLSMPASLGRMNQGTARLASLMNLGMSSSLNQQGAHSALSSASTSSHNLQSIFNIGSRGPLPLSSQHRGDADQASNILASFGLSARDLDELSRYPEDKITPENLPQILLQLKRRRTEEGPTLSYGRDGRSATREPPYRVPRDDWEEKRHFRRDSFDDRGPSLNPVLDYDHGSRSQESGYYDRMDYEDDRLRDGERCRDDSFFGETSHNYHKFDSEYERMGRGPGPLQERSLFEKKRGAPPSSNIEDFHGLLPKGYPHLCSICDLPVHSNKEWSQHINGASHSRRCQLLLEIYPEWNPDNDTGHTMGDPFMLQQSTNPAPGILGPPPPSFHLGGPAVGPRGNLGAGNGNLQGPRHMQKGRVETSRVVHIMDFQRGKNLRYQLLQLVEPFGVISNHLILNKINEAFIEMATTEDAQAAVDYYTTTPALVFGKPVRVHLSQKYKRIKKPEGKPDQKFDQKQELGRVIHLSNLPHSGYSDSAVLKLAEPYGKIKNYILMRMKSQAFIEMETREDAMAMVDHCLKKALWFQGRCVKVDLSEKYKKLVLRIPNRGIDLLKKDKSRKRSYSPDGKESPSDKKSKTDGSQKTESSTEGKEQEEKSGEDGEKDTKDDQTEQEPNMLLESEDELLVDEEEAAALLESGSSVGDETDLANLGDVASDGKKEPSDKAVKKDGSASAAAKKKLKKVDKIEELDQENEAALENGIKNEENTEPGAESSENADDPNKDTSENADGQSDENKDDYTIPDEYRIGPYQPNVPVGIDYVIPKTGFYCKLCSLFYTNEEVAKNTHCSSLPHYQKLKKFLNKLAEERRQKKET
The experiment in a line: pull-down; purified GST-Matrin-3 (50 ng) incubated with purified MBP-fused proteins (50 ng) in Interaction Buffer (20 mM Tris pH 8.0, 137 mM NaCl, 1.5 mM MgCl2, 1 mM EGTA, 0.1% Triton X-100, 10% glycerol), 1.5 h at 4°C; captured on Glutathione Sepharose 4B; immunoblot with anti-MBP Ab. The conditions noted are these: both partners purified. On the technique in general: Immunoblotting shows a protein as a band on a membrane.

B1: MBP-CTCF (natural protein, human, UniProt P49711-1 1-727, looked up)
chain: MEGDAVEAIVEESETFIKGKERKTYQRRREGGQEEDACHLPQNQTDGGEVVQDVNSSVQMVMMEQLDPTLLQMKTEVMEGTVAPEAEAAVDDTQIITLQVVNMEEQPINIGELQLVQVPVPVTVPVATTSVEELQGAYENEVSKEGLAESEPMICHTLPLPEGFQVVKVGANGEVETLEQGELPPQEDPSWQKDPDYQPPAKKTKKTKKSKLRYTEEGKDVDVSVYDFEEEQQEGLLSEVNAEKVVGNMKPPKPTKIKKKGVKKTFQCELCSYTCPRRSNLDRHMKSHTDERPHKCHLCGRAFRTVTLLRNHLNTHTGTRPHKCPDCDMAFVTSGELVRHRRYKHTHEKPFKCSMCDYASVEVSKLKRHIRSHTGERPFQCSLCSYASRDTYKLKRHMRTHSGEKPYECYICHARFTQSGTMKMHILQKHTENVAKFHCPHCDTVIARKSDLGVHLRKQHSYIEQGKKCRYCDAVFHERYALIQHQKSHKNEKRFKCDQCDYACRQERHMIMHKRTHTGEKPYACSHCDKTFRQKQLLDMHFKRYHDPNFVPAAFVCSKCGKTFTRRNTMARHADNCAGPDGVEGENGGETKKSKRGRKRKMRSKKEDSSDSENAEPDLDDNEDEEEPAVEIEPEPEPQPVTPAPPPAKKRRGRPPGRTNQPKQNQPTAIIQVEDQNTGAIENIIVEVKKEPDAEPAEGEEEEAQPAATDAPNGDLTPEMILSMMDR
notes: source: E. coli BL21-CodonPlus(DE3)-RIPL, purified (Amylose resin); not shown: MBP, N-terminal, kept
As to B1, the binding result is on record as “binds”.

B2: MBP-p68 (natural protein, human, UniProt P17844-1 1-614, looked up)
chain: MSGYSSDRDRGRDRGFGAPRFGGSRAGPLSGKKFGNPGEKLVKKKWNLDELPKFEKNFYQEHPDLARRTAQEVETYRRSKEITVRGHNCPKPVLNFYEANFPANVMDVIARQNFTEPTAIQAQGWPVALSGLDMVGVAQTGSGKTLSYLLPAIVHINHQPFLERGDGPICLVLAPTRELAQQVQQVAAEYCRACRLKSTCIYGGAPKGPQIRDLERGVEICIATPGRLIDFLECGKTNLRRTTYLVLDEADRMLDMGFEPQIRKIVDQIRPDRQTLMWSATWPKEVRQLAEDFLKDYIHINIGALELSANHNILQIVDVCHDVEKDEKLIRLMEEIMSEKENKTIVFVETKRRCDELTRKMRRDGWPAMGIHGDKSQQERDWVLNEFKHGKAPILIATDVASRGLDVEDVKFVINYDYPNSSEDYIHRIGRTARSTKTGTAYTFFTPNNIKQVSDLISVLREANQAINPKLLQLVEDRGSGRSRGRGGMKDDRRDRYSAGKRGGFNTFRDRENYDRGYSSLLKRDFGAKTQNGVYSAANYTNGSFGSNFVSAGIQTSFRTGNPTGTYQNGYDSTQQYGSNVPNMHNGMNQQAYAYPATAAAPMIGYPMPTGYSQ
notes: human p68 (DDX5), cDNA GenBank NM_004396, inserted downstream of the MBP gene in pMAL-x5c; also called p68/DDX5; source: E. coli BL21-CodonPlus(DE3)-RIPL, purified (Amylose resin); not shown: MBP, N-terminal, kept
With B2, the binding result is “binds”.
